Results taken from US20260201046A1 (BIO RAD LABORATORIES, published 2026).

Biological target: T1, recombinant mouse sIL-6Ra (20-357) (mouse, UniProt P22272 20-357)
T1 construct: range 20-357; The CD33 part of the plasmid name is not explained; also called recombinant sIL-6Ra; recombinant soluble IL-6Ra
T1 sequence: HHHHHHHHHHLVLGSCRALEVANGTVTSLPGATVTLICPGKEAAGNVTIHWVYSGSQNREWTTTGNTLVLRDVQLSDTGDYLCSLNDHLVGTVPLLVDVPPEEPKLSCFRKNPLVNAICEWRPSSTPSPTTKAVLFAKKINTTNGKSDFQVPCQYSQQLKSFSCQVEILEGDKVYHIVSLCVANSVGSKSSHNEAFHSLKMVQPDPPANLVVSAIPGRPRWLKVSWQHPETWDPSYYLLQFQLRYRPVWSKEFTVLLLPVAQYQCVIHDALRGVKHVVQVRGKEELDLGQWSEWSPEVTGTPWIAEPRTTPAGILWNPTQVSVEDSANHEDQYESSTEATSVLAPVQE
Test: SPR (Biacore), sIL-6Ra (20-357) amine-coupled to CM5 chip, antibody as analyte, 1:1 Langmuir fit
Experimental: The antigen-antibody affinity of four antibodies (rAb #22, rAb #52, rAb #62, a rat mAb RB01) were determined by an analysis service employing a surface plasmon resonance technology (Beijing Xtalbio Ltd. Co). It started with a directly immobilization of recombinant mouse sIL-6Ra (20-357) on a CM5 S sensor chip using Biacore® S200 machine. Approximately 27.8 resonance units (RU) of the sIL-6Ra (20-357) were immobilized at 25° C. with an amine coupling kit following the standard amine coupling procedure. The remaining active sites on the sensor chip were blocked with 1 M ethanolamine-HCl solution, pH 8.5 at a flow rate of 10 μL/min for 7 min, to finally reach 27.8 RU. The flow cells were washed with the injection of HBS-EP running buffer at 30 μL/min. For each antibody, a 2-fold serial dilution (0, 0.39 nM-200 nM) was injected at 15° C. to a channel with a flow rate of 30 μL/min for 120s and dissociation was followed for 720s. The curves were locally fitted with Biacore®8K analysis software (BIAevaluation) using a 1:1 Langmuir binding model.

Kd: 9.43 pM
B1: rAb #52 (antibody, V domains shown)
VH: QSLEESGGDLVKPGASLTLACTASGFSFSSGYYMCWVRQAPGKGLEWIGCIYTGSDTTYYASWAKGRFTISETSSTAATLQMTSLTAADTATYFCARDLGSRGNLWGPGTLVTVSS
VL: DIVMTQTPSSVSAAVGDTVTINCQASENIYSFLTWYQQKPGQRPKLLIYRASTLASGVPSRFKGSGSGTDFTLTISDLECADAATYYCQRNAYSSWAFGGGTEVVVK
notes: also called Antibody 52; recombinant rabbit monoclonal antibody from fusion clone #52
